Data: patent US20240124539A1 (NEW YORK UNIVERSITY, published 2024)
Positions of bridges follow the written chain, without caps; N, C: chain ends. Non-standard residues stand in square brackets, D forms with d. Primed or numbered codes have the meaning given here. Chains are numbered I, II in the order given. *: point of attachment. dibenzylether crosslinker″ = crosslinker alkylating both cysteine thiols, drawn in Scheme 1 and; dibenzylether crosslinker = scaffold alkylating both cysteine thiols (drawn in Scheme 1 and; dibenzylether crosslinker(3) = scaffold alkylating both cysteine thiols (Scheme 1; FITC = O=C1OC2(c3ccc(O)cc3Oc3cc(O)ccc32)c2ccc(NC(=S)*)cc21; FITC′ = fluorescein isothiocyanate, linked via thiourea; βAla = NCCC(=O)O

What was measured:
[1] = biological target: T1, wild-type His6-tagged H-Ras (1-166) pre-loaded with GDP (UniProt P01112 1-166); assay: fluorescence polarization, fluorescein-labelled CHD (15 nM), His6-H-Ras-GDP titrated
T1 construct: range 1-166; also called His6-H-Ras-GDP; not shown: N-terminal His6 tag with TEV site from the pProEx HTb vector

[2] = biological target: T1, wild-type His6-tagged H-Ras (1-166) …; assay: fluorescence polarization, fluorescein-labelled CHD, His6-H-Ras-GDP titrated
Method: (§1) The generated binding affinity (KD) values for each compound are from biological triplicate studies and were determined via fitting to a sigmoidal dose-response nonlinear regression model on Graphpad Prism 6.

[3] = biological target: T1, wild-type His6-tagged H-Ras (1-166) …; assay: direct fluorescence polarization; fluorescein-labelled CHD titrated with GDP-loaded WT H-Ras
Method: as §1

[4] = biological target: T2, fluorescently-labeled wild-type H-Ras-GDP (MST) (UniProt P01112 1-166, cysteine-reactive dye (Monolith RED-MALEIMIDE 2nd Generation or AFDye 647 maleimide) on cysteine, degree of label 0.43); assay: microscale thermophoresis (column MST of the drawn table); fluorescently labelled wild-type H-Ras-GDP with serial dilutions of the unlabelled CHD
T2 construct: range 1-166; also called fluorescently-labeled Ras; wild-type H-Ras labeled with AFDye 647; not shown: N-terminal His6 tag from pProEx HTb

Binder	Kd [1] [µM]	fold enhancement in binding affinity over CHC^Sos-1 [2] [fold]	Kd [3] [µM]	fold reduction in affinity against CHC^Sos-5 [2] [fold]	Kd [4] [µM]
FITC-CHD^Sos-2 (designed binder, linker I:6-II:18 via dibenzylether crosslinker; not fully specified, Crosslinked helix dimer; form used in the fluorescence polarization assay; also called CHC^Sos-2 (fluorescein-derivatized); CHD-2) chain 1: Ac-WIGRLCTEILRLRNGN-NH2 chain 2: {FITC′}-A[βAla]LAWRLRELERELARLC-NH2	2.8	10	2.79	–	–
FITC-CHD^Sos-6 (designed binder, linker I:6-II:18 via dibenzylether crosslinker″; not fully specified, Crosslinked helix dimer; form used in the fluorescence polarization assay; also called CHC^Sos-6 (fluorescein-derivatized)) chain 1: Ac-WIGRLCTEIRRLRNGN-NH2 chain 2: {FITC}-A[βAla]LAWRLRELERELARLC-NH2	8.6	–	–	4	–
FITC-CHD^Sos-4 (designed binder, linker I:6-II:18 via dibenzylether crosslinker; not fully specified, Crosslinked helix dimer; form used in the fluorescence polarization assay; also called CHC^Sos-4 (fluorescein-derivatized); CHD-4) chain 1: Ac-WIGRLCTEILRLRNGN-NH2 chain 2: {FITC′}-A[βAla]LAWALRELERELARLC-NH2	40	–	40.4	–	–
CHD^Sos-3 (designed binder, linker I:6-II:16 via dibenzylether crosslinker(3), also called CHC^Sos-3; CHD-3) chain 1: Ac-AIGRLCTEILRLRNGA-NH2 chain 2: Ac-LAWRLRELERELARLC-NH2	–	–	–	–	> 10
